Experiment [1] deals with T1, BCORL1 PUFD (1594-1711) with METR leader, co-expressed and purified with PCGF1 RAWUL (human, UniProt Q5H9F3-1 1594-1711).
T1 sequence: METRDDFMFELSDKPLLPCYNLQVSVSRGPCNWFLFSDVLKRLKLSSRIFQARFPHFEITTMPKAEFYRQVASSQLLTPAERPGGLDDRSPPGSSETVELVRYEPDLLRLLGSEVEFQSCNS
As to the kind of experiment: AUC.

The target of experiment [2] is BCOR PUFD (1634-1748) with METR leader, co-expressed and purified with PCGF1 RAWUL (human, UniProt Q6W2J9 1634-1748). As to the kind of experiment: AUC.

B1: PCGF1 RAWUL (167-255), co-expressed and purified with a PUFD (domain or fragment, human, UniProt Q9BSM1 167-255, looked up)
chain: EQLNLCLERLSSGKDKNKSVLQNKYVRCSVRAEVRHLRRVLCHRLMLNPQHVQLLFDNEVLPDHMTMKQIWLSRWFGKPSPLLLQYSVK
One may read the Kd as the constant that tells how readily two partners part at equilibrium. Consider B1, for which the Kd in experiment [1] and in experiment [2] was less than 8.5 µM in each case.

(Values after PMC4003909 (Structure (London, England : 1993), 2013).)
